Data published in patent US20030077800A1 (HORMOS MEDICAL, published 2003).

What was measured:
[1] = molecular target: rat androgen receptor expressed from pSG-rAR (rat) (UniProt P15207); assay: cell-based or functional assay
[2] = molecular target: T1, rat AR (amino acids 3-902) fused to the DBD of Gal4 (Gal4-AR) (rat, UniProt P04386 1-147; P15207 3-902); assay: mammalian two-hybrid in CV-1 cells, pG5LUC reporter
T1 construct: domain: DBD;range 3-902; Mammalian two-hybrid bait in CV-1 cells; also called Gal-AR

[3] = molecular target: T2, LexA-AR ZFR (AR amino acids 554-644) (human, UniProt P10275 554-644); assay: cell-based or functional assay
T2 sequence (looked up): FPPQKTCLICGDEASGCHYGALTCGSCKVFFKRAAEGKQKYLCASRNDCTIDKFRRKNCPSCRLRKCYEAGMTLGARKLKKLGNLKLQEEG

[4] = molecular target: T3, LexA-HLBD (amino acids 624-919 of AR) (UniProt P10275 624-919); assay: cell-based or functional assay
T3 sequence (looked up): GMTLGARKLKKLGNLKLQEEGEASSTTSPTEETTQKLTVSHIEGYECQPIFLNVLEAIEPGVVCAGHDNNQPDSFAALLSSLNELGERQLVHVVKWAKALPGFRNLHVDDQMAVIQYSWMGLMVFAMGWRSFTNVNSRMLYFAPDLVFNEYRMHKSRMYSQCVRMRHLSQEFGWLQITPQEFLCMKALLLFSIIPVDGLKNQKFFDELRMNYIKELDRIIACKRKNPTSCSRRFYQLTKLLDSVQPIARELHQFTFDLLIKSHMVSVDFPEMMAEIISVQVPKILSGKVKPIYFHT

rat androgen receptor expressed from pSG-rAR (rat), sequence (P15207 whole entry S389L, the tested form may be a part): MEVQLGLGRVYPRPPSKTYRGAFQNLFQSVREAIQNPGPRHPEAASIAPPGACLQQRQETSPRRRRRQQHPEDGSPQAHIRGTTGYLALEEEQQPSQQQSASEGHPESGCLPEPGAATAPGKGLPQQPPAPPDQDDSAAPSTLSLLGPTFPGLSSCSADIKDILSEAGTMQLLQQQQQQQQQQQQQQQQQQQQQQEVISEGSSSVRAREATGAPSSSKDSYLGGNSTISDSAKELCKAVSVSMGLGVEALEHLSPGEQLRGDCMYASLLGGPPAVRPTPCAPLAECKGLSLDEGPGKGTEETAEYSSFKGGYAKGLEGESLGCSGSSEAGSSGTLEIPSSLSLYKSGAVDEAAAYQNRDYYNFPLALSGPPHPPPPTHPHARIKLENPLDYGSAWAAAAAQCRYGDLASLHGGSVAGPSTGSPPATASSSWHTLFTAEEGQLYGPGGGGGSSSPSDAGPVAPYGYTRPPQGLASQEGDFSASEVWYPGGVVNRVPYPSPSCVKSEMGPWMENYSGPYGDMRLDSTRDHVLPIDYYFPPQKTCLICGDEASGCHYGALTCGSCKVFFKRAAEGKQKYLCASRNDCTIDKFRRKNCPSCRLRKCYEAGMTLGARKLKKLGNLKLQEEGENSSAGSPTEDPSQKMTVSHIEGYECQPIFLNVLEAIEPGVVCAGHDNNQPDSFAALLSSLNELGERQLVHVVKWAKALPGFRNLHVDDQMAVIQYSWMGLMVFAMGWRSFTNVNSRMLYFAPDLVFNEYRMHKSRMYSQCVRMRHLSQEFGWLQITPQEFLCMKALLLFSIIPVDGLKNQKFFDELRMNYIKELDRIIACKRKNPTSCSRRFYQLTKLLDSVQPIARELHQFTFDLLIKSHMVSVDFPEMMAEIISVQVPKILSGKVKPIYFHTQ

Molecule: FLAG-tagged ARIP4 (pFLAG-ARIP4) (from UniProt Q99NG0 1-1467)
- AR activity on the probasin promoter (pPB(-285/+32)-LUC, COS-1 cells) (% of that of AR alone) [1]: 50 to 60
- transcriptional activity of AR on a minimal promoter (ARE4-tk-LUC, COS-1 cells) [1]: 3 fold

B1: VP16-ODC fusion protein (human ornithine decarboxylase fused to VP16 AD) (other)
chain: MNNFGNEEFDCHFLDEGFTAKDILDQKINEVSSSDDKDAFYVADLGDILKKHLRWLKALPRVTPFYAVKCNDSKAIVKTLAATGTGFDCASKTEIQLVQSLGVPPERIIYANPCKQVSQIKYAANNGVQMMTFDSEVELMKVARAHPKAKLVLRIATDDSKAVCRLSVKFGATLRTSRLLLERAKELNIDVVGVSFHVGSGCTDPETFVQAISDARCVFDMGAEVGFSMYLLDIGGGFPGSEDVKLKFEEITGVINPALDKYFPSDSGVRIIAEPGRYYVASAFTLAVNIIAKKIVLKEQTGSDDEDESSEQTFMYYVNDGVYGSFNCILYDHAHVKPLLQKRPKPDEKYYSSSIWGPTCDGLDRIVERCDLPEMHVGDWMLFENMGAYTVAAASTFNGFQRPTIYYVMSGPAWQLMQQFQNPDFPPEVEEQDASTLPVSCAWESGMKRHRAACASASINV
notes: Negative control in the mammalian two-hybrid assay; also called human ODC
- binding result [2]: no binding

B2: VP16 AD fused to ARIP4 (amino acids 86-227) (VP16 AD-ARIP4 ID) (other)
chain: RHQGKILASEDPKKKRAQKPSHMRRNIRKLLREDQLEPVTKAAQQEELERRKRLEQQRKEYAAPIPTVPLEFLPEEIVLRASDGPQLPPRVLAQEVICLDSSSGSEDEKSSRDEVIELSSGEEDTLHIVDSSESVSEEDEEE
- reporter gene activity (beta-galactosidase, yeast two-hybrid) [3]: ~100 fold
- reporter gene activity (beta-galactosidase, yeast two-hybrid, with androgen) [4]: 4 fold
